In patent US20160230155A1:

B1: sulfamidase (SEQ ID NO:2) chemically modified according to the known method (WO 2008/109677): 20 mM sodium meta-periodate 0 °C 6.5 h, dialysis, 100 mM sodium … (enzyme)
chain: GSRPRNALLLLADDGGFESGAYNNSAIATPHLDALARRSLLFRNAFTSVSSCSPSRASLLTGLPQHQNGMYGLHQDVHHFNSFDKVRSLPLLLSQAGVRTGIIGKKHVGPETVYPFDFAYTEENGSVLQVGRNITRIKLLVRKFLQTQDDRPFFLYVAFHDPHRCGHSQPQYGTFCEKFGNGESGMGRIPDWTPQAYDPLDVLVPYFVPNTPAARADLAAQYTTVGRMDQGVGLVLQELRDAGVLNDTLVIFTSDNGIPFPSGRTNLYWPGTAEPLLVSSPEHPKRWGQVSEAYVSLLDLTPTILDWFSIPYPSYAIFGSKTIHLTGRSLLPALEAEPLWATVFGSQSHHEVTMSYPMRSVQHRHFRLVHNLNFKMPFPIDQDFYVSPTFQDLLNRTTAGQPTGWYKDLRHYYYRARWELYDRSRDPHETQNLATDPRFAQLLEMLRDQLAKWQWETHDPWVCAPDGVLEEKLSPQCQPLHNEL
modifications: N-glycans at N(21), N(131), N(244), N(393) of SEQ ID NO:1 disrupted by periodate oxidation and borohydride reduction; FGly50 about 56% converted to Ser50; methionine 184 and methionine 443 almost completely oxidized
B2: sulfamidase (SEQ ID NO:2) chemically modified according to new method 2: 20 mM sodium meta-periodate 0 °C 120 min, 10 mM sodium borohydride 0 °C 120 min (enzyme)
chain: B1 chain
modifications: N-glycans of SEQ ID NO:1 sites disrupted by periodate oxidation and borohydride reduction; FGly50 about 11.5% converted to Ser50
B3: sulfamidase (SEQ ID NO:2) chemically modified according to new method 1: 20 mM sodium meta-periodate 0 °C 120 min, 50 mM sodium borohydride 0 °C 120 min (enzyme)
chain: B1 chain
modifications: N-glycans at N(21), N(131), N(244), N(393) of SEQ ID NO:1 disrupted by periodate oxidation and borohydride reduction; FGly50 about 45% converted to Ser50

The binders below were run against M6P receptors expressed on MEF-1 fibroblasts (assay: cell-based or functional assay).

receptor mediated endocytosis in MEF-1 cells: specific activity in cell homogenate relative to unmodified recombinant sulfamidase (% of unmodified recombinant sulfamidase)	Binder
< 10	B1
< 10	B2
< 10	B3
